Reference: US20220089784A1

Columns and labels:
Assay in all cases: yeast scFv FACS
[1] = target: BoNT/B2 (Clostridium botulinum)
[2] = target: BoNT/B3 (Clostridium botulinum)
[3] = target: BoNT/B4 (Clostridium botulinum)
[4] = target: BoNT/C1 or other subtypes

Binder | Kd [1] | Kd [2] | Kd [3] | Kd [4]
26D9 scFv (scFv) scFv: DVQLQESGAELVKPGASVKLSCKASGFTFTDYWMHWVKQRPGQGLEWIGMIHPYNGDNNYHEKFKSKATLTVDKSSSTAYMQLSSLTTEDSAVYYCVRNDYDPYYYALDYWGQGTSLTVSAVDLKSGGSTSGSGKPGSGEGSSGSARQIVLTQSPAIMSASPGEKVTMSCRASSSVSYVYWYQQKPGSSPKPWIYRTSNLASGVPVRFSGSGSGTSYSLTISRVEAEDAATYYCQQWSSYPPTFGGGTKLEIK | 0.467 nM | – | – | –
19A9 scFv (scFv) scFv: EVQLQQPGSELARPGASVKLSCKASGYTFTSYPITWVKQTTGQGLEWIGEIYPRSGNTYYNEKFKGKATLTADKSSSTAYMELRSLTSEDSAVYFCARDYYDYAGGGRGYWGQGTTLTVSSVDLKSGGSTSGSGKPGSGEGSSGSARDIVLTQSPAIMSASPGGKITITCSASSSVSYMHWFQQKPGTSPKLWIYSTSNLASGVPARFSGSGSGTSYSLTISRMEAEDAATYYCQQRSSYPYTFGGGTKLEIK | 0.88 nM | 1.18 nM | 1.04 nM | –
26E6 scFv (scFv) scFv: EVQLQQSGPELVKPGASVKISCKASGYTFADYYINWVKQSHGKSLEWIGDFNPNNGDHSYNQKFKDKATLTVDESSNTAYMELRSLTSEDSAVYYCTREFYYYFDVWGTGTTVTVSSVDLKSGGSTSGSGKPGSGEGSSGSARDIVMSQSPLSLPVSLGDQAFISCRFSQSIVHSNGNTYLEWYLQKPGQSPKLLIYKVSNRFSGVPDRFSGSGSGTDFTLKISRVEAEDLGVYYCFQGSHVPYTFGGGTKLEIK | 17.6 nM | – | – | –
19D2 scFv (scFv) scFv: EVQLQQSGGELARPGSSVKLSCKASGYSFTGYSLTWVKQTPGQGLEWIGEIYPRSGNTYYNENFQGKATLTADESSSTAYMELRSLTSEDSAVYFCARDFYDYDGGGRGYWGQGTTLTVSSVDLKSGGSTSGSGKPGSGEGSSGSARDIVMTQTPAIMSASPGEKVTITCSASSSVSYMHWYQQKPGTSPKLWIYSTSNLASGVPARFSGSGSGTSYSLTISRMEAEDAATYYCQQRSSYPYTFGGGTKLEIK | 1.85 nM | 1.47 nM | 1.84 nM | –
18E5 scFv (scFv) scFv: EVQLQESGPELVKPGASVKISCKASGYTFTDHNMDWVKQSLGKSLEWIGDINPNNGGAVYNQNFKGKATLTVDKSSSTAYMELRSLTSEDTAVYYCARYGYYGYFDYWGQGTTLTVSSVDLKSGGSTSGSGKPGSGEGSSGSARQIVLTQSPAIMSASPGEKVTMTCRASSSVSSSYLHWYQQKPGSSPKLWIYSTSNLASGVPARFSGSGSGTSYSLTISSVEAEDAATYYCQQYDSSPSTFGAGTKLEIK | 2.66 nM | 2.56 nM | 1.36 nM | –
18A6 scFv (scFv) scFv: EVQLQQSGPELVKPGASVKISCKASGYTFTDNYINWVKQRPGQGLEWIGWIYPGSGNTKYNEKFKGKATLTVDTSSNTAYMQLTGLASDDSAVYFCARVNFYVSWDYWGQGTSVTVSSVDLKSGGSTSGSGKPGSGEGSSGSAREIVLTQSPAIMSASPGEKVTMTCSASSSISYMHWFQQKPGMSPKRRIFDTSKLASGVPARFSGSGSGTSYSLTISSMEAEDAGTYYCHQRSSYPFTFGGGTKLELK | 32.4 nM | 27.9 nM | 30.6 nM | –
8DC3 scFv (scFv, V domains shown) VH: QVQLVQSGGGLVKPGGSLRLSCAASGFTFSSHSMNWVRQAPGKGLEWVSSISSSSSYIYYADSVKGRFTISRDNSKNSLYLQLNSLRAEDTAVYYCARGDHDFRSGYYGMDVWGQGTMVTVSS VL: AELTQDPAVSVALGQTVRITCQGDSLRNYYASWYQQKPGQAPVLVIYGKNIRPSGIPDRFSGSSSGNTASLTITGAQAEDEADYYCNSRDSNGNHYVFGTGTKVTVL | – | – | – | > 20 nM
18F2 scFv (scFv) scFv: EVQLQQSGPELMKPGASVKISCKASGYAFSRSWMNWVKQRPGKGLEWIGRIYPGDGDTNYNGKFKDKASLTADTSSSTAYMQLSSLTSEDSAVYFCTKSEGYYHNLGAYWGQGTTVTVSSVDLKSGGSTSGSGKPGSGEGSSGSAREIVLTQSPAIMSASPGQKVTITCSASSSVSYMHWYQQKSGTSPKRWIYDTSKLASGVPARFSGSGSGTSYSLIISSMEAEDAATYYCQQWRSNPPTFGGGTRLEIK | 8.75 nM | – | – | –
26G5 scFv (scFv) scFv: EVQLQESGPGLAKPSQTLSLTCSVTGYSITSDYWNWIRKFPGNKLEYMGYISYSGSTYYNPSLKSRISITRDTSKNQYYLQLNSVTTEDTATYYCARSFYDGYLYFDYWGQGTTVTVSSVDLKSGGSTSGSGKPGSGEGSSGSAREIVLTQSPAILSASPGEKVTMTCSASSSVSYMYWYQQKPGSSPRLLIYDTSNLASGVPARFSGSGSGTSYSLTISRVEAEDAATYYCQQWSSYPPTFGDGTRLEIK | 30.5 nM | – | – | –
26B2 scFv (scFv) scFv: DVQLQESGPELVKPGASVKISCKASGYTFADYYINWVKQSHGKSLEWIGDFNPNNGDHSYNQKFKDKATLTVDESSNTAYMELRSLTSEDSAVYYCTREFYYYFDVWGTGTSVTVSSVDLKSGGSTSGSGKPGSGEGSSGSARDIEMTQTPAIMSASPGEKVTMTCSASSSVSSRYLHWYQQKSGASPKLWIYGTSNLASGVPARFSGSGSGTSYSLTISNVEAEDAATYYCQQYHSDPLTFGAGTKLEIK | 5.43 nM | – | – | –
19B6 scFv (scFv) scFv: QVQLQQSGAELVKPGASVKISCKASGYTFTDNYINWVKQRPGQGLEWIGWIHPGSGNAKYNEKFRAKATLTVDTSSNTAYMQLSSLTSEDSAVYFCARVGFRVNFDYWGQGTTLTVSSVDLKSGGSTSGSGKPGSGEGSSGSARQIVLTQSPAIMSASPGEKVTMTCSASSSLSYVHWYQQKPGSSPKPWIYATSNLVSGVPARFSGSRSGTSYSLTISSMEAEDAATYYCQQWSSYPPTFGAGTKLEIK | 35.6 nM | 866 nM | 43.5 nM | –
16B3 scFv (scFv) scFv: EVQLQQSGPELVKPGASVKITCKASGYTFTDNNMDWVKQSHGKSLEWIGDINPNNGGSIYNQKFKGKASLTLDKSSSTAYMELRSLTSEDTAVYYCARWGYYGSLAYWGQGTLVTVSSVDLKSGGSTSGSGKPGSGEGSSGSARQNVLTQSPAIMSASPGEKVTMTCSASSSVSSRYLHWYQQKSGASPKLWIYGTSNLASGVPARFSGSGSGTSYSLTISSVEAEDAATYYCQQYHSDPLTFGGGTKLEIK | 0.75 nM | 0.49 nM | 0.71 nM | –
19D22 scFv (scFv) scFv: QIQLLQSGAELVRPGTSVKMSCKAAGYPFTSYWMGWVKQRPGHGLEWIGDIYPGGPYTNYNEKFKGKATLTADTSSSTAYMQFSSLTSEDSAIYYCALYGQVGSYAMDYWGQGTSVTVSSVDLKSGGSTSGSGKPGSGEGSSGSARQIVLTQSPAIMSASPGEKVTMTCSASSSVSYMYWYQQKPGSSPRLLIYDTSNLASGVPVRFSGSGSGTSYSLTISRMEAEDAATYYCQQWSSYPPITFGAGTKLEIK | 5 nM | 3.77 nM | 5.24 nM | –
18D10 scFv (scFv) scFv: QVQLKQSGIEVMKPGASVKLSCKASGYPFTAYWIEWVKQRPGHGLEWIGEFLPGGISTNFNEKFKGKATFSADTSSNSAYIQLNSLTTEDSAIYYCVLTGTGFDYWGQGTSVTVSSVDLKSGGSTSGSGKPGSGEGSSGSARENVLTQSPAIMSASPGEKVTMTCSASSSVSYMHWYQQKSGTSPKRWIYDTSKLASGVPARFSGSGSGTSYSLTISSMEAEDAATYYCQQWSSNPLTFGAGTKLELK | 5.57 nM | 3.35 nM | 4.2 nM | –
